Laboratory results from the supplement of paper PMC10567573.

B1: KCNA4 (parent)
chain: YQSGGRLKRPVNVPFDIFTEEVKF
B2: TRIM14 (parent)
chain: REQADSCREQLDIMNDLSNRVWSI

Variants of: B1
Assay: protein stability index of a GFP-peptide fusion (GPS, HEK-293T) (PSI 1-6); higher = more stable
Details: c terminus: a fixed tail appended
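Also: lentivirally expressed fusions sorted by FACS into six bins by GFP to DsRed ratio, PSI derived from sequencing read proportions per bin multiplied by bin number.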

Variant	protein stability index
T19G	1.94
T19V	1.96
T19S	2.09
L7N	1.84
L7S	2.29
Y1G	3.48
Y1L	3.97
Y1F	1.6
K23Q	2.06
K23E	1.05
R6Q	2.15
R6C	1.26
R6K	1.94
P14N	2.07
P14G	2.98
P14I	3
D16P	1.52
D16T	1.29
D16C	1.1
S3Y	1.59
S3C	1.69
S3A	1.7

Variant	protein stability index
S3W	2.23
F18A	2.28
F18P	2.44
F18H	2.15
F18R	1.93
E20I	1.47
E21I	2.24
E21Y	2.61
E21V	1.81
Q2T	1.62
Q2C	2.63
Q2P	2
V11A	2.07
V11F	3.13
V11M	2.32
V11Q	2.36
K8P	1.7
K8D	2.28
K8Q	2.56
P10F	2.76
P10E	1.78
P10K	1.4

Variant	protein stability index
P10A	2.16
F24I	1.71
F24R	2.59
F24A	1.78
F24S	2.79
F24M	1.63
V13N	1.2
V13A	1.47
V13F	1.52
V13T	1.51
V13M	1.61
V13H	1.91
G5V	1.63
G5I	1.72
G5F	1.6
G5Q	2.08
V22R	1.48
V22C	1.54
V22G	2.34
V22F	2.06
N12S	2.96
N12E	1.22

Variant	protein stability index
N12M	2.13
I17V	1.28
I17P	1.85
I17A	1.64
I17W	2.99
R9W	3.37
R9D	1.99
R9C	1.63
R9K	1.83
R9Y	2.38
R9M	1.46
R9N	2.07
G4K	2.12
G4T	2.2
G4D	1.96
F15N	1.88
F15C	2.41
F15Y	1.56
F15S	1.94
F15G	1.98

Variants of: B2
Assay: as above
Details: c terminus: a fixed tail appended

Variant	protein stability index
L11F	1.87
L11P	2.53
L11I	2.53
L11S	3.03
L11V	2.19
L11G	2.62
L11T	3.1
L11E	3.9
L11K	2.38
L11H	2.24
L11M	2.13
L11R	3.11
L11Q	3.17
L11A	2.1
L11N	2.36
L11C	2.17
L11D	3.08
L11Y	1.73
L11W	1.46
Q3E	3.01
Q3A	2.48
Q3V	1.24
Q3C	2.08
Q3Y	2.23
Q3M	1.75

Variant	protein stability index
Q3R	2.42
Q3W	1.88
Q3P	2.15
Q3F	1.82
Q3L	1.68
Q3D	2.8
Q3H	1.87
Q3T	2.11
Q3S	1.77
Q3N	2.13
Q3G	1.82
Q3I	2.04
Q3K	1.59
R1S	3.43
R1L	2.32
R1M	2.19
R1G	1.86
R1W	2.82
R1F	1.88
R1N	2.56
R1H	2.29
R1E	3.17
R1A	2.81
R1C	2.15
R1Q	2.58

Variant	protein stability index
R1Y	2.11
R1K	1.72
R1V	2.96
R1T	2.75
R1I	2.63
R1D	2.64
R1P	2.48
C7I	2.12
C7M	2.52
C7Q	4.24
C7W	2.23
C7S	3.21
C7A	2.86
C7N	3.52
C7P	2.74
C7F	2.21
C7V	2.76
C7E	3.96
C7K	3
C7H	3.02
C7L	2.27
C7G	3.05
C7Y	2.2
C7R	3.42
C7T	3.04

Variant	protein stability index
C7D	3.5
D12K	1.92
D12Y	1.96
D12F	2.71
D12G	1.77
D12M	1.43
D12C	1.84
D12E	2.31
D12N	1.6
D12T	2.53
D12V	1.9
D12S	2.21
D12I	2.24
D12H	2.05
D12W	2.21
D12Q	1.59
D12P	2.31
D12R	2.06
D12A	2.05
R8N	2.51
R8C	2.3
R8M	2.17
R8A	2.47
R8E	3.19
R8Y	1.54

Variant	protein stability index
R8I	1.79
R8L	1.89
R8D	3.4
R8T	2.44
R8W	2.53
R8V	1.8
R8S	2.41
R8H	2.61
R8K	2.29
R8G	2.68
R8P	3.02
R8F	1.6
R8Q	2.64
A4P	1.76
A4K	2.52
A4Y	2.21
A4I	2.29
A4F	1.59
A4G	2.59
A4M	3.03
A4R	2.31
A4N	2.66
A4W	2.34
A4S	2.27
A4C	1.81

Variant	protein stability index
A4T	2.93
A4D	2.5
A4H	2
A4Q	2.25
A4V	2.36
A4E	2.52
A4L	2.57
E2G	1.85
E2M	2.56
E2Y	2.83
E2N	2.46
E2F	2.92
E2K	1.83
E2C	1.95
E2R	1.66
E2W	1.91
E2I	1.75
E2L	1.25
E2S	1.28
E2Q	1.63
E2T	2.13
E2P	2.33
E2D	2.45
E2V	1.98
E2A	1.93

Variant	protein stability index
E2H	1.53
M14E	2.81
M14A	2.07
M14D	3.01
M14C	2.36
S6H	2.41
S6V	1.85
S6L	1.93
S6F	1.91
S6D	3.4
S6Y	2.06
S6W	2
S6N	2.68
S6G	2.42
S6I	2.35
S6T	1.6
S6R	1.86
S6Q	2.21
S6M	1.93
S6P	2.35
S6K	1.78
S6E	2.77
S6C	2.01
S6A	2.45
Q10S	1.87

Variant	protein stability index
Q10Y	2
Q10N	2.24
Q10R	2.38
Q10T	2.39
Q10I	2.63
Q10V	1.57
Q10P	2
Q10E	2.21
Q10G	2.18
Q10H	2.03
Q10M	1.81
Q10D	2.74
Q10W	1.98
Q10K	2.16
Q10F	2.18
Q10C	2.24
Q10A	1.74
I13E	3.46
I13G	2.69
I13A	2.45
I13P	2.87
I13Q	2.8
I13F	1.9
I13S	2.51
I13V	2.02

Variant	protein stability index
I13N	2.92
I13R	2.43
I13Y	2.04
I13W	1.76
I13C	2.93
I13K	2.19
I13H	2.88
I13L	1.72
I13T	2.74
I13M	2.63
I13D	3.37
D5G	1.55
D5P	2.03
D5I	2.84
D5T	1.99
D5A	1.95
D5N	2.88
D5Y	1.2
D5M	2.1
D5W	2.21
D5R	3.62
D5L	3.46
D5Q	2.14
D5K	3.1
D5H	2.23

Variant	protein stability index
D5F	1.55
D5V	2.09
D5C	1.59
D5S	1.6
D5E	2.15
E9F	2.81
E9I	2.44
E9T	1.95
E9H	1.48
E9W	3.53
E9C	1.84
E9G	1.38
E9P	2.3
E9Q	1.53
E9L	2.75
E9A	2.03
E9Y	3.54
E9R	1.85
E9S	2.6
E9K	1.66
E9N	2.05
E9D	2.77
E9M	2.66
